Assay results published in patent publication US20090305946A1 (University of California, published 2009).

Assays:
[1] = target: T1, rat G-protein Gαq in rat hippocampal membranes (rat, UniProt P82471 1-359); test: stimulation of ^35S-GTPγS binding by the peptide in rat hippocampal membranes
T1 construct: also called Gq
T1 sequence (looked up): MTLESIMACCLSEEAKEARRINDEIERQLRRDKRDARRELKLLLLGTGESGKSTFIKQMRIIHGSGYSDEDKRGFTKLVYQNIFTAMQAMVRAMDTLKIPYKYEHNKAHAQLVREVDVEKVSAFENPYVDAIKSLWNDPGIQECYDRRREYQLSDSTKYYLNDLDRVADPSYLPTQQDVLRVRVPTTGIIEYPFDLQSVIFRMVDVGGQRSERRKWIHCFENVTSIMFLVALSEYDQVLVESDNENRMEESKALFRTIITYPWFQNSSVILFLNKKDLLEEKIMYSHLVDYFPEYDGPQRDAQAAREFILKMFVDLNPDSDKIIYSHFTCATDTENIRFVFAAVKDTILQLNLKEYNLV

[2] = target: tail-less PS-1 (amino acids 1-430 of PS-1) (human, UniProt P49768 1-430); test: co-immunoprecipitation with MAb to the PS-1 loop, Western blot with anti-Go
Text: Verification of the binding of G-protein Gₒ to the cytoplasmic carboxyl terminus of PS-1. A tail-less construct of PS-1 was made in pcDNA3 in which only the cytoplasmic domain of PS-1 immediately following the last TM-domain is deleted (this construct comprises amino acids 1-430). This construct was used to transfect ES (PS-1^{-/-}/PS-2^{-/-}) cells. […] In an identical strategy to the one described above for full-length PS-1, ES (PS-1^{-/-}/PS-2^{-/-}) cells were transfected with cDNAs for tail-less PS-1 and the G-proteins GoA or GoB. Cells extracts were then subjected to immunoprecipitation with PS-1 loop MAb #5232), separated on SDS PAGE and Western blotted with antibodies to Gₒ.
100 μg of extract of ES (PS-1^{-/-}/PS-2^{-/-}) cells co-transfected with cDNAs for tail-less PS-1 and the G-protein GαoA or GαoB were immunoprecipitated with MAb to the large hydrophilic loop of PS-1, followed by Western blot hybridization with affinity purified polyclonal antibody to Gₒ (recognizes both isoforms, GoA and GoB).

B1: PS-1 cytoplasmic peptide ic3 (KYLPE) (peptide)
peptide: KYLPE
notes: Synthetic peptide; also called loop 3; Cytoplasmic Loop 3 peptide
binding result [1]: binds

B2: human G-protein GαoB (other)
chain: GCTLSAEERAALERSKAIEKNLKEDGISAAKDVKLLLLGAGESGKSTIVKQMKIIHEDGFSGEDVKQYKPVVYSNTIQSLAAIVRAMDTLGIEYGDKERKADAKMVCDVVSRMEDTEPFSAELLSAMMRLWGDSGIQECFNRSREYQLNDSAKYYLDSLDRIGAADYQPTEQDILRTRVKTTGIVETHFTFKNLHFRLFDVGGQRSERKKWIHCFEDVTAIIFCVALSGYDQVLHEDETTNRMHESLKLFDSICNNKWFTDTSIILFLNKKDIFEEKIKKSPLTICFPEYTGPSAFTEAVAYIQAQYESKNKSAHKEIYTHVTCATDTNNIQFVFDAVTDVIIAKNLRGCGLY
notes: Co-transfected with PS constructs in ES double-null cells; assayed in detergent extracts; also called GoB; GOB
binding result [2]: no binding

B3: PS-1 cytoplasmic peptide C(21-39), last 19 amino acids of the C-tail (peptide)
peptide: TDYLVQPFMDQLAFHQFYI
notes: Synthetic peptide; also called residues 21-39 of the C-tail
binding result [1]: binds
